Laboratory results published in paper PMC7948495, “The flexible N-terminus of BchL autoinhibits activity through interaction with its [4Fe-4S] cluster and released upon ATP binding” (The Journal of Biological Chemistry, 2020).

Biological target: BchNB (NB-protein of DPOR) from Rhodobacter sphaeroides (Rhodobacter sphaeroides)

kobs of Pchlide reduction measured as Chlide formation (with BchNB, Pchlide and ATP): 0.0148 µM/min
Substance: linked-BchL (two BchL subunits expressed as a single polypeptide, joined by a flexible linker) (enzyme)
